Measurements reported in PMC10878525.
Where two headings read alike, the source gives them in different places.

Tests used:
[1] = target: chicken sodium hydrogen exchanger isoform 1 (chNHE1), expressed on 293T cells (pCAF-chNHE1) (chicken); assay: virus-cell binding assay read by RT-qPCR; 293T cells transfected with pCAF-chNHE1, exposed to rescued virus at MOI 50 for 1 h at 4 °C, washed five times; gp85 gene RT-qPCR against human GAPDH
[2] = target: chicken sodium hydrogen exchanger isoform 1 (chNHE1), expressed on 293T cells (pCAF-chNHE1) (chicken); assay: flow cytometry on cells; virus-cell binding: 293T cells transfected with pCAF-chNHE1 incubated with 50 MOI rescued virus 1 h on ice; stained with 4A3 anti-gp85 and FITC secondary, anti-FLAG co-staining
[3] = target: soluble chECL1 protein (chicken); assay: SPR; Biacore 8K; chECL1 immobilised on a CM5 chip to about 100 RU; serial dilutions of gp85 flowed; 10 mM HEPES pH 7.2, 150 mM NaCl, 0.05% Tween-20; 1:1 binding model
[4] = target: chicken sodium hydrogen exchanger isoform 1 (chNHE1), expressed on 293T cells (pCAF-chNHE1) (chicken); assay: flow cytometry on cells
[5] = target: chECL1, first extracellular loop of chNHE1, with a C-terminal HA tag (chicken); assay: co-IP
[6] = target: soluble chECL1 protein (chicken); assay: SPR; Biacore 8K; chECL1 immobilised on a CM5 chip to about 100 RU; serial dilutions of gp85 flowed; 10 mM HEPES pH 7.2, 150 mM NaCl, 0.05% Tween-20; 1:1 binding model; remark: listed apart in the source
[7] = target: chicken sodium hydrogen exchanger isoform 1 (chNHE1), expressed on 293T cells (pCAF-chNHE1) (chicken); assay: flow cytometry on cells; protein-cell binding assay: purified gp85-Fc (0.5 mL of 200 ng/uL; 300, 200 and 50 ng/uL in Fig 2A) incubated 1 h on ice with 293T cells transfected with pCAF-chNHE1; anti-human IgG (Fc specific)-FITC, anti-FLAG co-staining
[8] = target: chECL1, first extracellular loop of chNHE1, with a C-terminal HA tag (chicken); assay: co-IP; 293T cells co-transfected with chECL1 (HA) and pCAF-gp85 plasmids for 48 h; lysates on anti-HA-agarose; blot with 4A3 and anti-HA; gp85 intensities normalised to input

## Env of the recombinant virus rHPRS103-N123I (N123I in gp85), on virions (complex)
[1]
  fold binding capacity against rHPRS103 (RT-qPCR): 7.14 fold
[2]
  fold binding capacity against rHPRS103 (FACS): 1.27 fold

## Env of the recombinant virus rHPRS/JL3-1 (gp85 of JL08CH3-1 on the HPRS103 backbone), on virions (complex)
[1]
  fold binding capacity against rHPRS103 (RT-qPCR): 7.96 fold
[2]
  fold binding capacity against rHPRS103 (FACS): 1.29 fold

## JL08CH3-1-gp85 (CAG-JL3-1-gp85-Fc) (Fc fusion)
[3]
  Kd: 109 nM
[4]
  binding rate at 50 ng/μL: 58.5%
  binding rate at 200 ng/μL: 85%
  binding rate at 300 ng/μL: 87.9%

## JL08CH3-1-gp85 (pCAF-JL3-1-gp85) (natural protein)
[5]
  fold binding capacity against HPRS103-gp85: 1.3 fold

## N123I-gp85 (CAG-N123I-gp85-Fc) (Fc fusion)
[6]
  Kd: 135 nM
[7]
  fold binding capacity against HPRS103-gp85: 1.3 times

## N123I-gp85 (pCAF-N123I-gp85) (natural protein)
[8]
  fold binding against HPRS103-gp85: 1.6 fold

## N123I/V128F mutant gp85 (on CAG-sgp85-Fc backbone) (Fc fusion)
[7]
  fold binding capacity against HPRS103-gp85: 1.3 times

## soluble HPRS103-gp85 (CAG-sgp85-Fc) (Fc fusion)
[6]
  Kd: 547 nM
[3]
  Kd: 584 nM
[4]
  binding rate at 50 ng/μL: 9.7%
  binding rate at 200 ng/μL: 59.2%
  binding rate at 300 ng/μL: 70%
